Experimental data taken from PMC7040017.

Target: 11-A-12 recombinant fibronectin fragment, containing the EDA domain

- fold reduction of the EC50 of NF-κB reporter activity of the CTLL-2 reporter cell line in the presence of EDA (coated 11-A-12 fibronectin) against no EDA: 5 fold
Substance: F8 single-chain variable Fragment (scFv) linked to a single unit of murine GITRL (from UniProt Q7TS55 46-170)
